Source: patent US20240010735A1 (EISAI R AND D MANAGEMENT, published 2024)

Assays:
[1] = biological target: T1, mouse EphA4 extracellular region-SEAP-His protein (mouse); assay: competition ELISA; captured mouse EphA4 extracellular region-SEAP-His, competitor biotinylated mouse EphrinA1-Fc chimera (6 nM)
T1 construct: also called mouse EphA4 extracellular region-SEAP-His 10
Protocol: Anti-alkaline phosphatase antibodies (Thermo […]) were coated onto the wells of a 96-well plate (Nunc). After incubating at 4° C. overnight, the wells were blocked at room temperature for 1 hour by 1% Block Ace (DS Pharma Biomedical). After washing 3 times with 0.02% Tween 20/PBS (Thermo […]), mouse EphA4 extracellular region-SEAP-His protein was added to the wells (final concentration 10 nM), and incubated at room temperature for 1 hour. After washing 3 times, the ligand and antibody A (0, 0.003, 0.01, 0.03, 0.1, 0.3, 1, 3, 10, 30, 100, 300, 1000, 3000 nM) were supplemented to the wells. Note that biotinylated mouse EphrinA1-Fc chimera (R&D Systems, final concentration 6 nM) and biotinylated mouse EphrinB2-Fc chimera (R&D Systems, final concentration 2.5 nM) were employed as ligands. After incubating at room temperature for 1 hour and washing 3 times, horseradish peroxidase-labeled streptavidin (GE Healthcare) was added, and incubated at room temperature for 1 hour. After washing 3 times, TMBZ (3,3′, 5,5′-tetramethylbenzidine, Sigma) solution was added to the wells, and incubated at room temperature for 2 minutes. An equal amount of quenching solution (1 N H₂SO₄, Wako Pure Chemicals) was added to the wells, and absorbance at 450 nm was read by a microplate reader (PerkinElmer). […]

[2] = biological target: T2, human EphA4 extracellular region-SEAP-His protein (human, UniProt P54764 20-547); assay: competition ELISA; captured human EphA4 extracellular region-SEAP-His, competitor biotinylated human EphrinB3-Fc chimera (2.3 nM)
T2 construct: also called human EphA4 extracellular region-SEAP-His 10; not shown: secretory alkaline phosphatase (SEAP); histidine tag

[3] = biological target: T1, mouse EphA4 extracellular …; assay: SPR (Biacore T200): mouse EphA4 extracellular region-SEAP-His captured on anti-His antibody, antibody A 1.6-100 nM as analyte, 1:1 fit
Protocol: The binding affinity of antibody A against mouse and human EphA4 was determined by surface plasmon resonance (SPR method) employing Biacore T200 (GE Healthcare). First, anti-His antibodies (GE Healthcare, 28-9950-56) were fixed to a sensor chip CM5. Fixation was carried out by amine coupling method employing N-hydroxysuccinimide (NHS) and N-ethyl-N′-(3-dimethylaminopropyl) carbodiimide hydrochloride salt (EDC), and ethanolamine was employed for blocking (the sensor chip and reagents for fixation are all from GE Healthcare). This was diluted with the fixation buffer (10 mM sodium acetate, pH 4.5) to 3.5 μg/mL, and fixed onto the sensor chip according to the protocol accompanying Biacore T200. Mouse or human EphA4 extracellular region-SEAP-His 10 was diluted with the running buffer HBS-EP (GE Healthcare, BR-1001-88), and the solution was sent and captured onto the flow cell for 120 seconds (about 10 RU of captured amount). […] Fitting analysis by 1:1 binding model employing the software accompanying the system, BIA evaluation software, was carried out against the binding reaction curve obtained, and the binding affinity (KD=kd/ka) against mouse and human EphA4 was calculated.

MBP = assay: ELISA: human EphA4 domain-MBP-His proteins (10 nM) captured on anti-6-His antibody, antibody A 10 nM, HRP anti-mouse IgG Fc fragment antibody, OD450-OD650
Protocol: For antibody A, the evaluation of binding activity with various domains in human EphA4 was carried cut according to the following steps.
Rabbit anti-6-His antibodies (Bethyl Laboratories) were coated onto the wells of a 96-well plate (Nunc). After incubating at 4° C. overnight, the wells were blocked at room temperature for 1 hour by 1% Block Ace (DS Pharma Biomedical). After washing twice with 0.02% Tween 20/PBS (Nacalai Tesque), human EphA4 extracellular region-MBP-His protein, human EphA4 ligand binding domain-MBP-His protein, human EphA4 fibronectin type III domain 1-NBP-His protein, and human EphA4 fibronectin type III domain 2-MBP-His protein (final concentration 10 nM) were seeded into the wells, and incubated at room temperature for 1 hour. After washing 3 times, antibody A (final concentration 10 nM) was supplemented to the wells, and incubated at room temperature for 1 hour. Horseradish peroxidase-labeled goat anti-mouse IgG Fcγ fragment antibody (Jackson ImmunoResearch Laboratories) was added, and incubated at room temperature for 1 hour. After washing 5 times, TMB solution (KPL) was added to the wells, and upon confirmation of modest coloring, an equal amount of quenching solution (2 N H₂SO₄, Wako Pure Chemicals) was added to the wells, and absorbance at 450 nm and 650 nm were read by a microplate reader (PerkinElmer).

T1 sequence (chain, as listed by the source limits assumed): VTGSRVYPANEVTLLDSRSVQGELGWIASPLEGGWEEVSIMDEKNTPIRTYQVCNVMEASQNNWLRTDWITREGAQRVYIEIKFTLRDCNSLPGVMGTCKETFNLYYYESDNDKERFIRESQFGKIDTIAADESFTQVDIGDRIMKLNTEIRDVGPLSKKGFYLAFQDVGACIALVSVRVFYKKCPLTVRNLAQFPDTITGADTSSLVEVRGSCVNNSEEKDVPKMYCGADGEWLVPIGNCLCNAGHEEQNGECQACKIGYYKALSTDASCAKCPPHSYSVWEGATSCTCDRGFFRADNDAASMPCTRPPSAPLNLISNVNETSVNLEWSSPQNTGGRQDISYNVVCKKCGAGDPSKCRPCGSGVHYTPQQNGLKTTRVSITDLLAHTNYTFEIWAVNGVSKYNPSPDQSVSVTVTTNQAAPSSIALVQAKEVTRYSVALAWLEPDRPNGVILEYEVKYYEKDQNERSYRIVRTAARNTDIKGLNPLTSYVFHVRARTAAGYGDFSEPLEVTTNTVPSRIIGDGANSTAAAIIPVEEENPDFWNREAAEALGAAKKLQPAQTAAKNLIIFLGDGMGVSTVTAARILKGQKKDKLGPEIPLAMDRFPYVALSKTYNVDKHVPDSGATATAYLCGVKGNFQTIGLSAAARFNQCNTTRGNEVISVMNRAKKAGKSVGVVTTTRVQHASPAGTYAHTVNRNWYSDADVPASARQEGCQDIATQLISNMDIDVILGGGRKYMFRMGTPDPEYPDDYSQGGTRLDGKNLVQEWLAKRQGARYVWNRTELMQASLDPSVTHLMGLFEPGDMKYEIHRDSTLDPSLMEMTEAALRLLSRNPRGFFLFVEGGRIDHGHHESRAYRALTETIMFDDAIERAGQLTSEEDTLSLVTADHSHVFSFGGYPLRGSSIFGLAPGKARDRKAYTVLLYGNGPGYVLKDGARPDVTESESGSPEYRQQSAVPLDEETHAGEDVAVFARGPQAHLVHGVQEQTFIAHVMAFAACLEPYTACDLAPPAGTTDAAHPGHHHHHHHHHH
T2 sequence (P54764 20-547): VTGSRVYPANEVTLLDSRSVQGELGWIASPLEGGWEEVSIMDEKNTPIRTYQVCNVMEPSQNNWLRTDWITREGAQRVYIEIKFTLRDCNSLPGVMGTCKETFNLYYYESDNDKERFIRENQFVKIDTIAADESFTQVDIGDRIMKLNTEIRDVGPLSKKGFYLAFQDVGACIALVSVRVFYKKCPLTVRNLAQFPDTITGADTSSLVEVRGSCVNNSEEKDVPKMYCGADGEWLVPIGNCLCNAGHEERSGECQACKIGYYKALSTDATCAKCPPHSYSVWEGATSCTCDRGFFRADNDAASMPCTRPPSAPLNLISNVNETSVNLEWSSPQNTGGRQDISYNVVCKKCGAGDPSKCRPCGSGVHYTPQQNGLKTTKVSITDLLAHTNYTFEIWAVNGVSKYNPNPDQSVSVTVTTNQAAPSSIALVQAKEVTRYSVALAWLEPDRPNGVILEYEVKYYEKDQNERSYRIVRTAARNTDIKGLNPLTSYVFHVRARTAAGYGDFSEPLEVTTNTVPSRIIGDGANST

B1: mouse anti-EphA4 monoclonal antibody (antibody A) (antibody, mouse IgG1, kappa, V domains shown)
VH: QVQLKQSGPSLVQPSQSLSITCTVSGFSLTRYGVHWVRQSPGKGLEWLGVIWRGGSTDYNAAFMSRLSITKDNSKSQVFFKMNSLQADDTAIYYCAKESLFGVYYDYGYYSMDYWGQGTSVTVSS
VL: DIQMTQSPSSLSASLGERVSLTCRASQEISGYLSWLQQKPDGTIKRLIYAASTLDSGVPKRFSGSRSGSDYSLTISSLESEDFADYYCLQYASYPLTFGAGTKLELKR
notes: purified from hybridoma supernatant
Q: B1 was tested. Which IC50 [1] did it give?
A: ~5.9 nM

Q: And the IC50 [2]?
A: ~1.4 nM

Q: What about the koff [3] of the same binder?
A: 0.000433 s⁻¹

Q: What about the kon [3] of the same binder?
A: 328000 M⁻¹ s⁻¹

Q: Does B1 bind (MBP)?
A: no binding (tested: 10 nM)

B2: humanized anti-EphA4 monoclonal antibody (antibody B) (antibody, human IgG2, V domains shown)
VH: QVQLVESGGGVVQPGRSLRLSCAVSGFSLTRFGVHWVRQAPGKGLEWVAVIWRGGSTDYNAAFMSRLTISKDNSKNTVYLQMNSLRAEDTAVYYCAKESLFGVYYDYGYYSMDYWGQGTTVTVSS
VL: DIQMTQSPSSLSASVGDRVTITCRASQEISGYLSWLQQKPGKAPKRLIYAASTLDSGVPSRFSGSRSGTEYTLTISSLQPEDFATYYCLQYASYPLTFGGGTKVEIKR
notes: expressed in Expi293F cells; also called humanized antibody of antibody A; HK2-42 / L1-8
Q: How did the IC50 [1] turn out when B2 was run?
A: ~8.7 nM

Q: What about the IC50 [2] of the same binder?
A: ~1.6 nM
